The record followed here is article PMC8452523 (Cell Reports, 2021).

First the molecules themselves.
B1: REGN10987 (antibody, V domains shown)
VH: QVQLVESGGGVVQPGRSLRLSCAASGFTFSNYAMYWVRQAPGKGLEWVAVISYDGSNKYYADSVKGRFTISRDNSKNTLYLQMNSLRTEDTAVYYCASGSDYGDYLLVYWGQGTLVTVSS
VL: QSALTQPASVSGSPGQSITISCTGTSSDVGGYNYVSWYQQHPGKAPKLMIYDVSKRPSGVSNRFSGSKSGNTASLTISGLQSEDEADYYCNSLTSISTWVFGGGTKLTVL
B2: P5C3 human monoclonal antibody (antibody, V domains shown)
VH: QMQLVQSGPEVKKPGTSVKVSCKASGFTFTSSAVQWVRQARGQRLEWIGWIVVGSGNTDYAQQFQERVTITRDMSTSTAYMELSSLGSEDTAVYYCAAPNCSGGSCYDGFDLWGQGTMVTVSS
VL: EIVLTQSPGTLSLSPGERATLSCRGSQSVRSSYLGWYQQKPGQAPRLLIYGASSRATGIPDRFSGSGSGTDFTLTISRLEPEDFAVYYCQQYGSSPWTFGQGTKVEIK
B3: REGN10933 (antibody, V domains shown)
VH: QVQLVESGGGLVKPGGSLRLSCAASGFTFSDYYMSWIRQAPGKGLEWVSYITYSGSTIYYADSVKGRFTISRDNAKSSLYLQMNSLRAEDTAVYYCARDRGTTMVPFDYWGQGTLVTVSS
VL: DIQMTQSPSSLSASVGDRVTITCQASQDITNYLNWYQQKPGKAPKLLIYAASNLETGVPSRFSGSGSGTDFTFTISGLQPEDIATYYCQQYDNLPLTFGGGTKVEIK

This experiment has as its target Spike RBD protein (SARS-CoV-2, UniProt P0DTC2). Kind of experiment: Luminex bead-based competitive binding assay.
As for B1, the binding result is on record as “binds”.

For the molecule B2, the binding result is “binds”.

Take B3: the binding result is recorded as “binds”.
